What was measured:
[1] = tested on: Pseudomonas fluorescens phosphinothricin dehydrogenase (PPTDH, PfGluDH; WP_150701510.1) mutant A164G_R205K_T332A, SEQ ID No.1; type: biochemical
CP(=O)(O)CCC(=O)C(=O)O = experiment: cells, lysate or membranes named; conditions: pH 7.0; 40.0 °C

| Compound | catalytic efficiency (kcat/Km) for PPO, increase compared with the wild type [1] | Km (CP(=O)(O)CCC(=O)C(=O)O) | kcat (CP(=O)(O)CCC(=O)C(=O)O) | kcat/Km (CP(=O)(O)CCC(=O)C(=O)O) |
| --- | --- | --- | --- | --- |
| CP(=O)(O)CCC(=O)C(=O)O [PPO, 2-carbonyl-4-(hydroxymethylphosphono)butyric acid] | 145.83 times | – | – | – |
| Pseudomonas fluorescens phosphinothricin dehydrogenase (PPTDH, PfGluDH; NCBI accession number WP_150701510.1), wild type (Pseudomonas azerbaijanoccidentalis) | – | 6.12 ± 0.32 mM | 7.47 ± 0.22 s⁻¹ | 1220 M⁻¹ s⁻¹ |

— patent US12152264B2, “Phosphinothricin dehydrogenase mutant, genetically engineered bacterium and one-pot multi-enzyme synchronous directed evolution method” (ZHEJIANG UNIVERSITY OF TECHNOLOGY, priority 2020, dated 2024)
